According to paper PMC3176292:

T1: Flag-Smad4, full length, Q13485
T1 chain: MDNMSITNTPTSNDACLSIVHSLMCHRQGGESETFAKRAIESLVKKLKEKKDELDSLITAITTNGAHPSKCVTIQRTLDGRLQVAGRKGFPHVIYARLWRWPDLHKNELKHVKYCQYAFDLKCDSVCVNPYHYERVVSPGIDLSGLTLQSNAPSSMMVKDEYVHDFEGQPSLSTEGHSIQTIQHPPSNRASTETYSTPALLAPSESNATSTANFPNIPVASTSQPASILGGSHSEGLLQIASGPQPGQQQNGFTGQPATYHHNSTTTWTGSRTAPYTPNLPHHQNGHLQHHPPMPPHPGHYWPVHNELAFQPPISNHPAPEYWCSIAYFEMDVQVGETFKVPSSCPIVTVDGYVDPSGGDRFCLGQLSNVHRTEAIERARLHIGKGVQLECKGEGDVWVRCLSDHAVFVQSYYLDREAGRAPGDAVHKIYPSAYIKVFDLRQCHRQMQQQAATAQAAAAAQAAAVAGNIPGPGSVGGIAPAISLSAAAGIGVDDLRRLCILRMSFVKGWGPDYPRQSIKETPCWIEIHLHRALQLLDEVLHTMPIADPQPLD


Key:
[1] = biological target: T1, Flag-Smad4, full length, Q13485; test: co-IP; LUMIER: Renilla luciferase-Smad3 and Flag-tagged partner co-expressed with constitutively active Alk5 in HEK-293; Flag protein captured from cleared lysate (TNE: 10 mM Tris-HCl pH 7.8, 150 mM NaCl, 1 mM EDTA, 1% Igepal CA-630) on anti-Flag 96-well plates, 2 h at 4 °C; co-precipitated Renilla luciferase activity, TrxGA background subtracted, percent of wild-type Smad3; conditions: remark: other sources report otherwise
[2] = biological target: T1, Flag-Smad4, full length, Q13485; test: co-IP; LUMIER as a1 but without co-expression of the activated Alk5 kinase (Smad3 not phosphorylated); percent of phosphorylated wild-type Smad3; conditions: remark: other sources report otherwise

| percent binding relative to wild-type Smad3 [1] | percent binding relative to wild-type Smad3 [2] | Binder |
| --- | --- | --- |
| 100% |  | Renilla luciferase-Smad3 wild type, co-expressed with constitutively active Alk5 (phosphorylated Smad3), P84022 1-425 (natural protein, here or on the partner: phosphorylated by the co-expressed activated Alk5 kinase (sites not given)) MSSILPFTPPIVKRLLGWKKGEQNGQEEKWCEKAVKSLVKKLKKTGQLDELEKAITTQNVNTKCITIPRSLDGRLQVSHRKGLPHVIYCRLWRWPDLHSHHELRAMELCEFAFNMKKDEVCVNPYHYQRVETPVLPPVLVPRHTEIPAEFPPLDDYSHSIPENTNFPAGIEPQSNIPETPPPGYLSEDGETSDHQMNHSMDAGSPNLSPNPMSPAHNNLDLQPVTYCEPAFWCSISYYELNQRVGETFHASQPSMTVDGFTDPSNSERFCLGLLSNVNRNAAVELTRRHIGRGVRLYYIGGEVFAECLSDSAIFVQSPNCNQRYGWHPATVCKIPPGCNLKIFNNQEFAALLAQSVNQGFEAVYQLTRMCTIRMSFVKGWGAEYRRQTVTSTPCWIELHLNGPLQWLDKVLTQMGSPSIRCSSVS |
|  | 6% | Renilla luciferase-Smad3 wild type, without Alk5 (not phosphorylated), P84022 1-425 (natural protein) MSSILPFTPPIVKRLLGWKKGEQNGQEEKWCEKAVKSLVKKLKKTGQLDELEKAITTQNVNTKCITIPRSLDGRLQVSHRKGLPHVIYCRLWRWPDLHSHHELRAMELCEFAFNMKKDEVCVNPYHYQRVETPVLPPVLVPRHTEIPAEFPPLDDYSHSIPENTNFPAGIEPQSNIPETPPPGYLSEDGETSDHQMNHSMDAGSPNLSPNPMSPAHNNLDLQPVTYCEPAFWCSISYYELNQRVGETFHASQPSMTVDGFTDPSNSERFCLGLLSNVNRNAAVELTRRHIGRGVRLYYIGGEVFAECLSDSAIFVQSPNCNQRYGWHPATVCKIPPGCNLKIFNNQEFAALLAQSVNQGFEAVYQLTRMCTIRMSFVKGWGAEYRRQTVTSTPCWIELHLNGPLQWLDKVLTQMGSPSIRCSSVS |
